Experimental data: publication doi:10.1101/2025.07.31.667833, “Coiled-coil-mediated phase separation of Spef1 for non-centrosomal microtubule organization and function” (bioRxiv, 2025)

B1: full-length wild-type Spef1 (mouse) (natural protein, UniProt Q99JL1 1-234, looked up)
chain: MESSVDEEALHQLYLWVDNIPLSRPKRNLSRDFSDGVLVAELIKFYFPKMVEMHNYVPANSLQQKLSNWGHLNRKVLNKLNFSVPDDVMRKIAQCSPGVVELVLIPLRQRLEERQRRQKLGVGSLQELAPQDSSGYMDMGLPQKVRGEGAPALGEQLREGRPLASRPPGYNQALQGDPSFVLQIAEKEQELLASQETVQVLQMKVKRLEHLLQLKNVRIDDLSRRLQQAERKQR
notes: Spef1 (sperm flagellar protein 1, CLAMP), mouse, full length; also called WT; CLAMP; source: E. coli BL21(DE3), purified (Ni2+-Sepharose, size-exclusion chromatography)
B2: Spef1 E186A/E188A/E190A mutant (full-length) (natural protein, mouse, UniProt Q99JL1 1-234, looked up)
chain: MESSVDEEALHQLYLWVDNIPLSRPKRNLSRDFSDGVLVAELIKFYFPKMVEMHNYVPANSLQQKLSNWGHLNRKVLNKLNFSVPDDVMRKIAQCSPGVVELVLIPLRQRLEERQRRQKLGVGSLQELAPQDSSGYMDMGLPQKVRGEGAPALGEQLREGRPLASRPPGYNQALQGDPSFVLQIAAKAQALLASQETVQVLQMKVKRLEHLLQLKNVRIDDLSRRLQQAERKQR
notes: Spef1, mouse, full length, with E186A, E188A and E190A on the coiled-coil surface; also called charge-changing mutant; source: E. coli BL21(DE3), purified (Ni2+-Sepharose, size-exclusion chromatography)
B3: Spef1 K206A/R207A mutant (full-length) (natural protein, mouse, UniProt Q99JL1 1-234, looked up)
chain: MESSVDEEALHQLYLWVDNIPLSRPKRNLSRDFSDGVLVAELIKFYFPKMVEMHNYVPANSLQQKLSNWGHLNRKVLNKLNFSVPDDVMRKIAQCSPGVVELVLIPLRQRLEERQRRQKLGVGSLQELAPQDSSGYMDMGLPQKVRGEGAPALGEQLREGRPLASRPPGYNQALQGDPSFVLQIAEKEQELLASQETVQVLQMKVAALEHLLQLKNVRIDDLSRRLQQAERKQR
notes: Spef1, mouse, full length, with K206A and R207A on the coiled-coil surface; also called KR; charge-changing mutant; source: E. coli BL21(DE3), purified (Ni2+-Sepharose, size-exclusion chromatography)

Molecular target: the molecule itself
Assay: SEC-MALS; ~1 mg/ml protein in 50 mM Tris-HCl pH 8.0, 500 mM NaCl, 1 mM EDTA, 1 mM DTT; WTC SEC column, 18-angle light scattering; oligomeric state (dimer or monomer)

Stoichiometry N, 2:
B1
B2
B3
